This note sets out measurements from paper PMC3789691.

In the data set the test system is T1, LexA2 recombinant (Leptospira interrogans serovar Copenhageni), ORF:e6531adf.
T1 sequence: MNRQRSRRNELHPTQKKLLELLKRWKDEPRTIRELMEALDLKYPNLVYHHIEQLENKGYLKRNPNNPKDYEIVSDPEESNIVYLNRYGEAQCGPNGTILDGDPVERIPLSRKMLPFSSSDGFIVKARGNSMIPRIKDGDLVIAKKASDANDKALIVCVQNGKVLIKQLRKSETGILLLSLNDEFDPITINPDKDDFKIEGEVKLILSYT
As to the kind of experiment: EMSA. Conditions: Roche DIG Gel Shift Kit binding buffer (composition and pH not given), poly[d(A-T)], 1.55 fmol probe, 20 min on ice; 5% native gel, 0.5x TBE, 4 C. In general terms: In EMSA bound probe runs differently from free probe, usually more slowly.

As for “GTTCATTTCTTCTGGATCGTTGCCTATTCATACTACTAAGTACATGATTAGGAAAATTAACTTAAAAAGCAAGAAAAAAATCAACTCGCATCTTGACATTTAAACTTTGTACAAGTATAATTACAATTAAAGCAATGGGACATATTCCCAAAGGAGACATGAATGTCTAAGAACATTAAAGTTACCAAAGAATCGAATACAGGGCTCAATAAAGAATTCTACGATCCTTCCAGAGGAAAGTC (double strand) [lexA2up]”, the binding result is “binds”.
